Here are results for 31 molecules from patent publication US20150246947A1 (BAXALTA, published 2015).

Non-standard residues stand in square brackets, D forms with d.

First the molecules themselves.
T1: human Protein S (human, UniProt P07225 42-676)
T1 construct: Called 'full length Protein S' / 'human full-length Protein S'; It was coated on plates (ELISA), Eu-labeled (LANCE) or immobilized on a chip (Biacore); also called PS; full length Protein S
T1 sequence: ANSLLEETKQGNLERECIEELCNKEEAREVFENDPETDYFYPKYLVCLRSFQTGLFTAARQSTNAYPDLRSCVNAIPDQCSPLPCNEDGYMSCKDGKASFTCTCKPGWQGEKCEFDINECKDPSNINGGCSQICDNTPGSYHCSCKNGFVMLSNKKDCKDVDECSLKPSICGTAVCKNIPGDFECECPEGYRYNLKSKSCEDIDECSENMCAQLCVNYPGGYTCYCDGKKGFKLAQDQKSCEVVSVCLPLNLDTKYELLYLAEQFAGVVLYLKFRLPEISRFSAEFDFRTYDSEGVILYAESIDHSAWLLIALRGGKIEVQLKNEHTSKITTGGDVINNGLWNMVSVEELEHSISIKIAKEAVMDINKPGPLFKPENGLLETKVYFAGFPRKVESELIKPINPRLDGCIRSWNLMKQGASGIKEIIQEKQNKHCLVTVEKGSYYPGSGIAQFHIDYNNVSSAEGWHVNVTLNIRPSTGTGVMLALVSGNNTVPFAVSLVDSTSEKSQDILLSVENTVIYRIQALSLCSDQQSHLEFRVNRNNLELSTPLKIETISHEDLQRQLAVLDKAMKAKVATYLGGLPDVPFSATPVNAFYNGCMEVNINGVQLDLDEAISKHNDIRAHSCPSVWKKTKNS

T2: human Protein S (UniProt P07225 42-676)
T2 chain: T1 sequence

B1: JBS2734 (peptide)
chain: Ac-TGLVSAGWYDYN[dA]DHYREFT-NH2
SMILES: CC(=O)N[C@H](C(=O)NCC(=O)N[C@@H](CC(C)C)C(=O)N[C@H](C(=O)N[C@@H](CO)C(=O)N[C@@H](C)C(=O)NCC(=O)N[C@@H](Cc1c[nH]c2ccccc12)C(=O)N[C@@H](Cc1ccc(O)cc1)C(=O)N[C@@H](CC(=O)O)C(=O)N[C@@H](Cc1ccc(O)cc1)C(=O)N[C@@H](CC(N)=O)C(=O)N[C@H](C)C(=O)N[C@@H](CC(=O)O)C(=O)N[C@@H](Cc1c[nH]cn1)C(=O)N[C@@H](Cc1ccc(O)cc1)C(=O)N[C@@H](CCCNC(=N)N)C(=O)N[C@@H](CCC(=O)O)C(=O)N[C@@H](Cc1ccccc1)C(=O)N[C@H](C(N)=O)[C@@H](C)O)C(C)C)[C@@H](C)O
B2: JBS3321 (peptide)
peptide: Ac-EYYVSAGWYDYNTDTYYEFEC-NH2
modifications: not fully specified (residue 21)
notes: Tetramer of JBS3319 monomers with a four arm 10 kD PEG moiety

The target of the first assay is T1, human Protein S. The assay can be described thus: competition ELISA; Protein S coated; competitor biotinylated tracer JBS0684. The protocol:
The competition (IC50) ELISA was performed using biotinylated tracer peptide JBS0684 to compete for Protein S-binding with candidate peptides. Peptides that compete with the tracer bind the same region of Protein S as the tracer (and each other). Ninety-six well PolySorp plates (Nunc) were coated with 3 μg/mL Protein S in coating buffer (15 mM Na₂CO₃, 35 mM NaHCO₃, pH 9.6) over night. […] Plates were then washed three times with HNaT. JBS0684 was applied at a concentration corresponding to the EC90 value determined in the binding ELISA. A competitor stock solution of peptide (10 mM) was diluted 1/33.3 in HNaT without HSA, and a serial 1/3 dilution was prepared with HNaT with 3% DMSO. The dilution was further diluted with the biotinylated tracer peptide in a ratio of 1:6 (20 μl competitor dilution and 100 μl tracer peptide). The mixture of competitor and tracer peptide was applied to the Protein S-coated microtiter plate and incubated for 1.5 hours. The plates were washed three times with HNaT. Peptide-Protein S binding was detected by applying HRP-conjugated streptavidin to the microtiter plate, incubating the mixture for one hour, washing the plate three times with HNaT, applying TMB (3,3′5,5′-Tetramethylbenzidin), and detecting the subsequent chromogenic conversion of TMB by HRP. IC50 measurements of peptides are provided herein (see, e.g., Table 3).
On the technique in general: An ELISA detects its analyte on a solid surface through an enzyme-linked reagent.
In general, IC50 refers to the concentration that gives 50% inhibition. High values mean a need for much substance, low ones inhibition by little substance. On to Ac-TGHVSAGWYDYNFDHYLEFT-NH2 [JBS2586], for which the half-inhibitory concentration (IC50) turned out to be 2.6 nM.
With Ac-GGHVSAGWYDYNFDHYREFT-NH2 [JBS2552], the half-maximal inhibitory concentration (IC50) came to 5.5 nM.
Still for that read-out and setting: in the case of Ac-TGHVSAGWYDYNFDHYREFT-NH2 [JBS2512] it was 3.9 nM; in that of Ac-TGHVSAGWYDYNFDAYREFT-NH2 [JBS2528], 5.2 nM; in that of Ac-TGHVSAGWYDYNKDHYREFT-NH2 [JBS2602], 3.4 nM.
On the same count and under the same terms, with Ac-TGHVSAGWYDYNFDHYFEFT-NH2 [JBS2625] the figure was 1.6 nM; with Ac-TGHVSAGWYDYNADHYREFT-NH2 [JBS2526], 3.6 nM; with Ac-TKHVSAGWYDYNFDHYREFT-NH2 [JBS2591], 4.2 nM.
The same measure, in the same setting: in the case of Ac-TGHVSAGWYDYNFDKYREFT-NH2 [JBS2604] it was 4.1 nM.
Molecule Ac-TPHVSAGWYDYNFDHYREFT-NH2 [JBS2629] registered a half-inhibitory concentration (IC50) of 3.1 nM.
The same measure, in the same setting: in the case of Ac-TGHVSAGWYDYNFDLYREFT-NH2 [JBS2584] it was 2.7 nM.

In another assay the target is T2, human Protein S. The assay can be described thus: LANCE competition. The method in brief:
(§1)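 In this LANCE homogeneous time-resolved FRET competition assay, europium-labelled Protein S, ULight-labelled streptavidin and a biotinylated tracer peptide were combined with unlabelled test peptide titrated in three-fold steps. The 50 µl reactions held final concentrations of 10 nM Protein S, 100 nM streptavidin and 300 nM tracer, or 2 nM Protein S and 60 nM tracer on a Tecan F500. After 1 hour at room temperature, signals were read at Ex 340 nm and Em 665 nm. IC50 was determined by non-linear regression of the emission signals.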
Ac-TGHVSAGWYDYNFDHYLEFT-NH2 [JBS2586] gave a half-maximal inhibitory concentration (IC50) of 11 nM.
On to Ac-TSHVSAGWYDYNFDHYREFT-NH2 [JBS2649], for which the half-inhibitory concentration (IC50) stood at 31.8 nM.
Same read-out and setting: in the case of Ac-KGHVSAGWYDYNFDHYREFT-NH2 [JBS2590] it was 11.4 nM.
Still for that read-out and setting: in the case of Ac-GGHVSAGWYDYNFDHYREFT-NH2 [JBS2552] it was 16.6 nM.
On the same count and under the same terms, in the case of Ac-TGLVSAGWYDYNFDIYREFT-NH2 [JBS2788] it was 2.2 nM.
In turn, Ac-TGHVSAGWYDYNFDFYREFT-NH2 [JBS2623] returned a concentration for half-maximal inhibition (IC50) of 15.1 nM. Against the preceding molecule, the IC50 is about 6.9-fold higher.
On the same count and under the same terms, with Ac-TGFVSAGWYDYNFDHYREFT-NH2 [JBS2612] the figure was 17 nM; with Ac-TGHVSAGWYDYNFDHYREFT-NH2 [JBS2512], 21.5 nM.
Ac-TGHVSAGWYDYNFDAYREFT-NH2 [JBS2528]: the half-inhibitory concentration (IC50) was 18.8 nM.
In the case of Ac-TGHVSAGWYDYNFDHYRPFT-NH2 [JBS2645], the concentration for half-maximal inhibition (IC50) was 9.4 nM.
Still for that read-out and setting: in the case of Ac-TGHVSAGWYDYNKDHYREFT-NH2 [JBS2602] it was 10.9 nM; in that of Ac-TGLVSAGWYDNNFDHYREFT-NH2 [JBS2845], 8.4 nM.
On the same count and under the same terms, in the case of Ac-TGLVSAGWYDYNFDHYIEFT-NH2 [JBS2790] it was 3.4 nM.
Still for that read-out and setting: with B1 the figure was 792 nM; with Ac-LGHVSAGWYDYNFDHYREFT-NH2 [JBS2570], 18.8 nM; with Ac-SGHVSAGWYDYNFDHYREFT-NH2 [JBS2648], 18.6 nM.
With Ac-TGHVSAGWYDYNFDHYFEFT-NH2 [JBS2625], the 50% inhibitory concentration (IC50) was 6.6 nM.
The same measure, in the same setting: with Ac-TGLVSAGWYDYNFDEYREFT-NH2 [JBS2750] the figure was 3.6 nM; with Ac-GGHVSAGWYDYNKDHYREFT-NH2 [JBS2676], 11.6 nM.
Still for that read-out and setting: with Ac-TGLVSAGWYDYNFDHYVEFT-NH2 [JBS2905] the figure was 5.9 nM.
Still for that read-out and setting: with Ac-TGLVSAGWYDYNFDHYTEFT-NH2 [JBS2887] the figure was 4 nM.
In turn, Ac-TGLVSAGWYDYNFDHYWEFT-NH2 [JBS2924] had an IC50 of 3.6 nM.

The target of a further assay is T1, human Protein S. The assay can be described thus: Biacore (SPR), Protein S immobilized. Summed up:
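Surface plasmon resonance was used to measure peptide binding kinetics to human full-length Protein S, and Kd was calculated from the kon and koff obtained by Langmuir model fits of the sensorgrams. The protein was immobilized at 1000 RU on a […] chip in a Biacore 3000 or Biacore T200. Peptides were injected at various concentrations in HBS-buffer with 3 mM CaCl₂ and 1% DMSO, and the chip was regenerated using 4 M MgCl₂ in HBS-buffer.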
For orientation: SPR reads the build-up and loss of mass on a sensor chip optically.
What is called Kd is the equilibrium constant for the complex coming apart. Lower therefore signals tighter binding. As usually defined, the koff is the first-order rate constant of dissociation. Read a low koff as a long-lived complex. By kon is commonly meant a measure of how fast the partners come together. High values mean fast association, low ones slow association. Molecule Ac-EYIVTAGWYDYNKDIYYEFK-NH2 [JBS3263] yielded a dissociation constant Kd of 0.4 nM, a koff of 0.000264 s⁻¹ and an on-rate constant (kon) of 629000 M⁻¹ s⁻¹.
Taken in the same sequence, the figures for Ac-HWYVSAGWYDYNEDKYYEFE-NH2 [JBS3306] were 0.4 nM, 0.000402 s⁻¹ and 1e+06 M⁻¹ s⁻¹.
Taken in the same sequence, the figures for Ac-AIYVTAGWYDYNNDTYYEFT-NH2 [JBS3283] were 0.4 nM, 0.000322 s⁻¹ and 735000 M⁻¹ s⁻¹.
Turning to B2, the Kd was determined as 0.02 nM, the koff amounted to 3.88e-05 s⁻¹ and the kon stood at 1.58e+06 M⁻¹ s⁻¹.

The target of another assay is T1, human Protein S. The assay can be described thus: cell-based or functional assay.
Take Ac-TGHVSAGWYDYNFDHYLEFT-NH2 [JBS2586]: the “CAT EC50” value was determined as 19 nM.
Still for that read-out and setting: with Ac-GGHVSAGWYDYNFDHYREFT-NH2 [JBS2552] the figure was 24 nM; with Ac-TGHVSAGWYDYNFDHYREFT-NH2 [JBS2512], 24 nM.
Ac-TGHVSAGWYDYNFDAYREFT-NH2 [JBS2528]: the “CAT EC50” value was found to be 23 nM.
Turning to Ac-TGHVSAGWYDYNKDHYREFT-NH2 [JBS2602], the “CAT EC50” value turned out to be 30 nM.
As for Ac-TGHVSAGWYDYNFDHYFEFT-NH2 [JBS2625], the “CAT EC50” value is 29 nM.
On the same count and under the same terms, with Ac-TGHVSAGWYDYNADHYREFT-NH2 [JBS2526] the figure was 19 nM.
With Ac-TGHVSAGWYDYNFDKYREFT-NH2 [JBS2604], the “CAT EC50” value came out at 19 nM.
On the same count and under the same terms, with Ac-TPHVSAGWYDYNFDHYREFT-NH2 [JBS2629] the figure was 25 nM; with Ac-TGHVSAGWYDYNFDLYREFT-NH2 [JBS2584], 9 nM.

For another assay, the target named is T2, human Protein S. The assay can be described thus: LANCE competition. The source holds these as a separate data set. Summed up:
as §1
On the technique in general: Time-resolved FRET reads energy transfer from a long-lived donor to a nearby acceptor.
On to Ac-EYIVTAGWYDYNKDIYYEFK-NH2 [JBS3263], for which the IC50 came out at 1.2 nM.
Still for that read-out and setting: with Ac-HWYVSAGWYDYNEDKYYEFE-NH2 [JBS3306] the figure was 0.8 nM.
The same measure, in the same setting: in the case of Ac-AIYVTAGWYDYNNDTYYEFT-NH2 [JBS3283] it was 0.9 nM.
Same read-out and setting: in the case of B2 it was 0.7 nM.
